Where “and” joins values, the source holds several entries; their conditions need not be identical. Equal entries are not always repeated. Where two headings read alike, the source gives them in different places.
Columns and labels:
TGF-α [1] = target: TGF-α (UniProt P01135); conditions: Fc fusion
Target sequence in this assay (P01135 40-89): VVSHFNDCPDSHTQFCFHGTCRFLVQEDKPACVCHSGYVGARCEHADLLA

NRG1-β [2] = target: NRG1-β (UniProt Q02297); conditions: Fc fusion
Target sequence in this assay (Q02297 other isoform, or with tags, fused parts or gaps): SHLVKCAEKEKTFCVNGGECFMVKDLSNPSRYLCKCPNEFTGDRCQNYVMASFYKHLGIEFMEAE

HB-EGF = HB-EGF (UniProt Q99075); experiment: biotin-ligand binding; conditions: Fc fusion
TGF-α [3] = target: TGF-α (UniProt P01135); experiment: biotin-ligand binding; conditions: Fc fusion
Target sequence in this assay (P01135 40-89): as the sequence (P01135 40-89) above

TGF-α [4] = target: TGF-α (UniProt P01135); experiment: 125I-TGF-a saturation binding, heterodimer immobilised on anti-Fc coated plate; not saturated at 100 nM
Target sequence in this assay (P01135 40-89 limits assumed): as the sequence (P01135 40-89) above

NRG1-β [5] = target: NRG1-β (UniProt Q02297); experiment: 125I-NRG1-β saturation binding, heterodimer immobilised on anti-Fc coated plate
Target sequence in this assay (Q02297 other isoform, or with tags, fused parts or gaps limits assumed): as the sequence (Q02297 other isoform, or with tags, fused parts or gaps) above

EGF [6] = target: EGF (UniProt P01133); experiment: Eu-ligand saturation binding; conditions: Fc fusion
EGF [7] = target: EGF (UniProt P01133); experiment: Eu-EGF competition; conditions: Fc fusion

Sequence of EGF (P01133 971-1023): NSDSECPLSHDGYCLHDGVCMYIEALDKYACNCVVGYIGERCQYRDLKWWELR
Sequence of HB-EGF (Q99075 63-148): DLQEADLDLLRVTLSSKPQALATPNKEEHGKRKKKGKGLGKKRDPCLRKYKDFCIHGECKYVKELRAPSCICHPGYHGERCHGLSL

EGFRT15S:Fc homodimer (from UniProt P00533 25-645)
Kd (TGF-α [1]): 1.7 nM

HER3:Fc (from UniProt P21860 20-643)
Kd (NRG1-β [2]): 17.1 nM and 17 nM

RB222 (from UniProt P00533 25-645; P21860 20-643)
Kd (HB-EGF): 1.58 nM
Kd (TGF-α [3]): 42.6 nM

RB222 (from UniProt P00533 25-645; P21860 20-643) (Fc fusion)
Kd (TGF-α [4]): > 30 nM
Kd (NRG1-β [5]): 1.6 nM

RB242 (from UniProt P00533 25-645; P21860 20-643)
Kd (EGF [6]): 0.77 nM
Ki (EGF [7]): 0.89 nM

Reference: patent US20100278801A1
